Assay results reported in article PMC9458432 (Nucleic Acids Research, 2022).

How the values were obtained:
ΔFOSB Cys172Ser homomers = molecular target: T1, ΔFOSB Cys172Ser homomers (Mus musculus, UniProt P13346, C172S); experiment: FP dose-response against ΔFOSB Cys172Ser homomers; assay type: binding; details: 50 nM TMR-cdk5, 280 nM protein, compound 0–200 μM
T1 sequence (P13346 2-237 isoform P13346-2 C172S): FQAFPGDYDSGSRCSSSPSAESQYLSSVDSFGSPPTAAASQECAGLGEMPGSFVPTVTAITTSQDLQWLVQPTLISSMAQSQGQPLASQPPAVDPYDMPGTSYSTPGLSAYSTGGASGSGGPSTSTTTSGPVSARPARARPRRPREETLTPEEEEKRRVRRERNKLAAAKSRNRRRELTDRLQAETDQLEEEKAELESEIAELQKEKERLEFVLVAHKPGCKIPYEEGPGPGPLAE

[1] = molecular target: T2, ΔFOSB Cys172Ser/JUND heterodimers (Mus musculus, UniProt P13346+P15066, C172S); experiment: FP dose-response against ΔFOSB Cys172Ser/JUND heterodimers; assay type: binding; details: 50 nM TMR-cdk5, 280 nM protein, compound 0–200 μM
T2 sequence (P13346 2-237 isoform P13346-2 C172S): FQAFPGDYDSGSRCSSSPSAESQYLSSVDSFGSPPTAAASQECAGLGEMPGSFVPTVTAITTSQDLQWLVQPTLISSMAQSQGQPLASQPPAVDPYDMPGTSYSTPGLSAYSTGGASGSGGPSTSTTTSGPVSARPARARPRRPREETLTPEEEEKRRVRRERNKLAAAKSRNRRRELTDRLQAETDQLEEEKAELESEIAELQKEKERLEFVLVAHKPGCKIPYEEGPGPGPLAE
T2 sequence (P15066 2-341): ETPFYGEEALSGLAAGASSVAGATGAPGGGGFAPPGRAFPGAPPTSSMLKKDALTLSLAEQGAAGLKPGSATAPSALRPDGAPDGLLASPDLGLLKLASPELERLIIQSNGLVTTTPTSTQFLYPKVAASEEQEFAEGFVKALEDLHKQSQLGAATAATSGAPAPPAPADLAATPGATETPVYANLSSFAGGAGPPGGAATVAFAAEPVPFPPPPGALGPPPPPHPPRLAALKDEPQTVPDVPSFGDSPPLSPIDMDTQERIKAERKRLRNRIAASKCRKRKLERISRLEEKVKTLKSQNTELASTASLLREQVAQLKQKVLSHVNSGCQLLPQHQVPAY

[2] = molecular target: T3, ΔFOSB (N(His)6-ΔFOSB);JUND (N(His)6-JUND) (mouse;mouse, UniProt P13346-2;P15066 2-237;2-341, |); experiment: fluorescence polarization
T3 sequence 1: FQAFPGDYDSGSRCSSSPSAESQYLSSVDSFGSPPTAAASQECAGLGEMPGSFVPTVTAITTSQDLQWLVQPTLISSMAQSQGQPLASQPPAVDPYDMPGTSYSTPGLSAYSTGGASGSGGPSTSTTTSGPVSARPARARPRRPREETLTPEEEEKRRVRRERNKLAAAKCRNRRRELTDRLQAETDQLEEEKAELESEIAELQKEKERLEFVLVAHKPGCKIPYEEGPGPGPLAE
T3 sequence 2: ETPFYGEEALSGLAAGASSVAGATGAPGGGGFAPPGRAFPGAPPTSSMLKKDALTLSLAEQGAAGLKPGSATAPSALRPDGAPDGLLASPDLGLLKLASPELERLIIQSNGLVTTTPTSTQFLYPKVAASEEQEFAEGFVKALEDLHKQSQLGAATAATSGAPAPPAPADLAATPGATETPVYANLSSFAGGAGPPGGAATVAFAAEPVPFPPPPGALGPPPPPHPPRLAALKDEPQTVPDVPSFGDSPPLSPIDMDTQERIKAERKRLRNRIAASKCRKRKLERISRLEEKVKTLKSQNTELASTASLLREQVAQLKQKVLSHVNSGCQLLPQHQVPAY

ΔFOSB (N(His)6-ΔFOSB) = molecular target: T4, ΔFOSB (N(His)6-ΔFOSB) (mouse, UniProt P13346-2 2-237); experiment: fluorescence polarization
T4 sequence: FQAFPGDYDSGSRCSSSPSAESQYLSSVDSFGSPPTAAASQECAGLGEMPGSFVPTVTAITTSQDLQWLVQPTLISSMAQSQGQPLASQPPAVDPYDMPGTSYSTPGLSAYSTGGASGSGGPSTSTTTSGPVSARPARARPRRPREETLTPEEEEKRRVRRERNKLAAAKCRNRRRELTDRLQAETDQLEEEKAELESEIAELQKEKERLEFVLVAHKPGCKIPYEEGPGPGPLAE

ΔFOSB Cys172Trp = molecular target: T5, ΔFOSB Cys172Trp (mouse, UniProt P13346-2 2-237, C172W); experiment: fluorescence polarization
T5 sequence: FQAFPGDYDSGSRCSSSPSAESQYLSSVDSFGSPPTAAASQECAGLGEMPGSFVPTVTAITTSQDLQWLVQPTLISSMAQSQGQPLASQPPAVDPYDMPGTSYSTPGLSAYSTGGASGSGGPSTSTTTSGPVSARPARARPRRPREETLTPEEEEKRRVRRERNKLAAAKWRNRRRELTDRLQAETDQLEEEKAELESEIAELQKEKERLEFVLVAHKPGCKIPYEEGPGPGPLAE

[3] = molecular target: T3, ΔFOSB (N(His)6-ΔFOSB);JUND …; experiment: EMSA

Molecule: O=C(O)CCc1cc(C(=O)c2ccc(OC3CCCC3)cc2O)ccc1OCc1ccc2c(=O)[nH]oc2c1 [Compound T5224]
- Disruption of DNA binding to ΔFOSB Cys172Ser homomers (ΔFOSB Cys172Ser homomers): similarly well as to the wild-type species
- Disruption of DNA binding to ΔFOSB Cys172Ser/JUND heterodimers [1]: similarly well as to the wild-type species

B1: TMR-cdk5 (dsDNA)
DNA 1: CGTCGGTGACTCAAAACAC
DNA 2: GTGTTTTGAGTCACCGACG
- binding result [2]: binds
- binding result (ΔFOSB (N(His)6-ΔFOSB)): binds
- binding result (ΔFOSB Cys172Trp): binds

B2: BIO-cdk5 (dsDNA)
DNA 1: CGTCGGTGACTCAAAACAC
DNA 2: GTGTTTTGAGTCACCGACG
- binding result [3]: binds
